In this assay the target is HCMV gHgLgO trimer with gO249 mutant, from virions (human cytomegalovirus, strain TB40/E (TB40-BAC4)). As to the kind of experiment: co-IP + pull-down.

Turning to “HCMV glycoprotein gB, from virions (natural protein)”, the fold change of the interaction with gB against gHgLgOWT is 4 fold.
